Assay results reported in patent US10435681B2, “Compounds and methods for stabilizing thrombin activity” (Omrix Biopharmaceuticals Ltd., priority 2013, dated 2019).

Experiments:
Assay type in all cases: biochemical
[1] = molecular target: T1, thrombin (Homo sapiens, UniProt P00734); experiment: Thrombin inhibition testing: clotting activity of 10 IU/ml thrombin towards fibrinogen in the presence of the additive; conditions: 10 IU/ml thrombin
T1 construct: yields the active alpha thrombin molecule which is a 295 amino acid polypeptide (human) composed of a heavy and light chain
Description: (§1) Thrombin activity was assessed by clotting time measurements using STart4 Coagulation Instrument (DIAGNOSTICA STAGO™, Asnieres sur Seine, France). The assay is a modification of the European Pharmacopoeia Assay procedure, 1997, 0903, p. 858. Briefly, a calibration curve was prepared by mixing thrombin standard with a fibrinogen solution of 0.1% fibrinogen content (Enzyme Research Laboratories, Ind., USA). Thrombin concentration in the different tested samples was then calculated from the calibration curve by their clotting time (the concentration was extrapolated from the calibration curve).
For inhibition testing, the clotting activity of 10 IU/ml thrombin was measured in the presence or absence of peptides.
The assay was carried out as described in Example 1.

[2] = molecular target: T1, thrombin; experiment: Thrombin stability testing: remaining clotting activity of 1000 IU/ml liquid thrombin after storage at 37° C.; conditions: 1000 IU/ml thrombin
[3] = molecular target: T1, thrombin; experiment: as above; conditions: 0.5 mM peptide, 1000 IU/ml thrombin; for stabilization of thrombin activity (in words): 37° C., 0, 3 and 7 days
Description: Aqueous liquid thrombin, in its purified and concentrated form 1000 international units IU/ml may undergo autolysis at room temperature causing a significant loss of activity e.g. towards a heterologous substrate. E.g. thrombin activity towards a heterologous substrate is reduced when a liquid thrombin formulation is incubated at room temperature for prolonged periods of time (e.g. 72 to 144 hours), inter alia, due to autolytic degradation. The decrease of thrombin activity towards a heterologous substrate in aqueous liquid solution can be assessed by measuring thrombin activity after prolonged periods of time and under permissive temperature (e.g. 37° C.). In the following experiments, the effect of a peptide on the stability of thrombin was studied under different conditions.
Aqueous liquid purified and concentrated thrombin (1000 IU/ml; equivalent to about 10 μM) was aliquoted and placed in a 37° C. incubator for 3 days (72 hours), 7 days (168 hours) and 14 days (336 hours). Prior to incubation, thrombin samples were spiked with indicated amounts of different tested peptides or with a control thrombin inhibitor: benzamidine or arginine *HCl (“arginine”). Specific peptides, their concentrations, and thrombin inhibitors used are indicated in each Example. Following the incubation period, the samples were frozen at −80° C. until testing the thrombin activity. Just before thrombin activity assay testing, all the samples were thawed and 100-fold diluted into a dilution buffer (0.4% tri-sodium citrate di-hydrate, 0.9% sodium chloride and 1% BSA, pH=7.5) to bring the thrombin concentration in the sample to that within the specifications of the assay (4-10 IU/ml) and to dilute the tested peptides in the sample to a negligible concentration.
as §1
For stability testing of 1000IU/ml thrombin following storage with or without peptides, testing was carried out as described above. Dilutions (1:100) were carried out before measuring the activity.
All of these peptides (“mutant gamma loop peptides” identified in Example 3, random peptides, thrombin derived peptides, and “gamma loop binding peptides” mentioned above) were tested for their ability to stabilize thrombin activity at a concentration of 0.5 mM as described in Example 2.

effect on thrombin activity (in words) ([1]; 0.2 mM peptide): not significantly affected
remaining thrombin activity in presence of peptide ([1]; 0.5 mM peptide, FIG. 2D): about 80%
stabilization of thrombin activity (in words) ([2]; 0.1 mM peptide, 144 hours at 37° C.): stabilization detected
stabilization of thrombin activity (in words) ([2]; 0.2 mM peptide, 72 hours at 37° C.): already evident
Sequence: GNLKETWTANVGKGQPS [SEQ ID NO:2, gamma loop peptide with flanking amino acids on N- and C-termini]
stabilization of thrombin activity (in words) [3]: capable of stabilizing liquid aqueous thrombin
stabilization of thrombin activity (in words) ([3]; listed as SEQ ID NO: 2): efficient stabilization of thrombin activity
thrombin stability (in words) ([3]; 72 and 144 hours at 37° C., FIG. 2C): an increase in thrombin stability was observed
